{
  "source": "patent US20240191187A1",
  "about": "“MEDIA AND METHODS FOR GROWING MAMMARY ORGANOIDS” (STEMCELL TECHNOLOGIES CANADA INC., priority 2021, published 2024)",
  "key": {"[1]": {"test_system": "human mammary epithelial cells", "assay": "Human mammary organoid cell lineage balance by flow cytometry", "details": "for cell lineage balance, BMP signaling modulators: ~50 ng/mL BMP2 or BMP4, ~25-200 ng/mL NOGGIN or ~10-100 nM LDN193189", "experimental": "Cryopreserved pellet A and pellet B were dissociated into a single cell suspension by treatment with 0.25% Trypsin-EDTA for 5 minutes at 37° C. (with intermittent trituration) and then centrifuged at (300 g for 5 minutes). The supernatant was discarded and the pellet was resuspended in a 100 μg/ml DNase solution for 1 minute at room temperature. The resulting cells were passed through a 37 μm strainer to obtain the single cell suspension.\nOrganoids were formed in media comprising either BMP signaling activator, ˜50 ng/mL BMP2 or ˜50 ng/mL BMP4, and in media comprising either BMP signaling inhibitor, ˜25-200 ng/mL NOGGIN or ˜10-100 nM LDN193189. Just prior to the first passage, the formed organoids were dissociated and the cell lineage balance was analyzed by flow cytometry.\nOrganoids were formed in media comprising either no ligand of an ERBB receptor family member, or comprising ˜10-50 ng/mL amphiregulin (AREG), ˜10-50 ng/mL epidermal growth factor (EGF), or ˜50-100 ng/mL heregulin/neuregulin 1 (NRG1). Just prior to the first passage, the formed organoids were dissociated and the cell lineage balance was analyzed by flow cytometry.\nJust prior to the first passage, the formed organoids were dissociated and the cell lineage balance was analyzed by flow cytometry."}, "[2]": {"test_system": "human mammary epithelial cells", "assay": "Total cell count among formed human mammary organoids", "format": "cell-based"}, "[3]": {"test_system": "mouse mammary epithelial cells", "assay": "Mouse mammary organoid cell lineage balance by flow cytometry (EpCAM, CD49f)", "format": "cell-based", "details": "non-sorted mouse cells; ~100 ng/mL NOGGIN and ~100 ng/mL RSPO-1 together vs free of both; 8 independent experiments; 14 days (P0)", "method": "Panels A) and B) show representative images of organoids after cells were cultured for 14 days (P0) in an R-spondin-containing (panel A) or an R-spondin-free (panel B) medium. Cells of the organoids shown in panels A) and B) were respectively analyzed by flow cytometry for expression of EpCAM and CD49f (panels C) and D)). A summary of flow cytometry data is shown in panel E. Results were confirmed in n=8 mice. Scale bars are 500 μm.\nA single cell suspension of mouse mammary epithelial cells was isolated from mammary glands, as follows. A resected mammary gland was minced and placed in a tube containing standard culture medium, including 50 μg/ml gentamycin, collagenase, and hyaluronidase. The mammary gland was incubated for 2 hours at 37° C. in the tissue incubator. Following the incubation, the cell dissociation mixture was washed in advanced DMEM and centrifuged at 300 g for 5 minutes. Depending on the appearance of the pellet, in some cases it is desirable to resuspend the pellet in ammonium chloride to lyse contaminating red blood cells. Following, the pellet is resuspended in 0.25% Trypsin-EDTA, as above, for 5 minutes at 37° C. and then centrifuged at (300 g for 5 minutes). The supernatant was discarded and the pellet was resuspended in a 100 μg/ml DNase solution for 1 minute at room temperature. […]"}, "[4]": {"test_system": "human mammary epithelial cells", "assay": "Human mammary organoid formation, brightfield microscopy", "format": "cell-based", "method": "Fragments of human mammary epithelial cells were isolated from tissue samples obtained from academic collaborators, as follows. Resected tissue samples were minced in a petri dish using a scalpel to cut in a cross-hatched pattern. The minced tissue samples were placed in a dissociation flask in standard culture medium supplemented with BSA, insulin, collagenase and hyaluronidase. The flask was gently shaken overnight on an orbital shaker placed in a 37° C. tissue incubator. The following morning the floating layer of fat was removed by pipette, and the remaining liquid was transferred to a tube and briefly centrifuged at low rpm (˜80 g for 30 seconds). The pellet (A pellet) was set aside and the supernatant was further centrifuged for an incrementally longer period of time and at an incrementally higher rpm (˜200 g for 4 minutes). The pellet (B pellet) was set aside and the supernatant was further centrifuged for a still incrementally longer period of time and at an incrementally higher rpm (˜450 g for 5 minutes).\nCryopreserved pellet A and pellet B were dissociated into a single cell suspension by treatment with 0.25% Trypsin-EDTA for 5 minutes at 37° C. (with intermittent trituration) and then centrifuged at (300 g for 5 minutes). The supernatant was discarded and the pellet was resuspended in a 100 μg/ml DNase solution for 1 minute at room temperature. […]"}, "[5]": {"test_system": "mouse mammary epithelial cells", "assay": "Mouse mammary organoid formation, organoid organization by brightfield/confocal imaging", "format": "cell-based", "details": "for type of organoids formed from bulk (non-sorted) mammary epithelial cells: RSPO comprising media vs media free of RSPO (luminal-biased/cystic)", "method": "A single cell suspension of mouse mammary epithelial cells was isolated from mammary glands, as follows. A resected mammary gland was minced and placed in a tube containing standard culture medium, including 50 μg/ml gentamycin, collagenase, and hyaluronidase. The mammary gland was incubated for 2 hours at 37° C. in the tissue incubator. Following the incubation, the cell dissociation mixture was washed in advanced DMEM and centrifuged at 300 g for 5 minutes. Depending on the appearance of the pellet, in some cases it is desirable to resuspend the pellet in ammonium chloride to lyse contaminating red blood cells. Following, the pellet is resuspended in 0.25% Trypsin-EDTA, as above, for 5 minutes at 37° C. and then centrifuged at (300 g for 5 minutes). The supernatant was discarded and the pellet was resuspended in a 100 μg/ml DNase solution for 1 minute at room temperature. The resulting cells were passed through a 37 μm strainer to obtain the single cell suspension.\nEach well received between 0.5-1 mL of any one of the various culture media described herein.\nThe plated single cell suspension of mammary epithelial cells formed into organoids that were passaged approximately every 7-days, with 2-3 full medium changes during such 7-day period. To passage the organoids, the Matrigel domes were broken apart by pipetting in pre-warmed 0.25% Trypsin-EDTA, incubating at 37° C. for ˜ 5-15 minutes and pipetting again. The trypsinization reaction was inactivated by washing in an equal volume of Hanks Balanced Salt Solution supplemented with 2% FBS. Depending on the density and size of organoids a 1:2-1:5 split was performed, with the cells seeded as domes, as described above. Alternatively, cells would be strained through a 37 μm strainer to obtain the single cell suspension and seeded in Matrigel domes as described above.\nSingle cell suspensions of mouse mammary epithelial cells were obtained in accordance with Example 1. The single cell suspension was sorted using a BD FACSAria™ Fusion flow cytometer into three populations of cells corresponding to the ER^+, milk, and basal cell lineages, based on the differential expression of EpCAM, CD49f, and CD49b. Non-epithelial cells were further eliminated during the sorting strategy based on the expression of CD45, Ter119 and CD31. The sorted cells were seeded and cultured essentially as described in Example 2 in an organoid medium free of an exogenously-added inhibitor of BMP signaling and either comprising exogenously added RSPO-1 (˜100 ng/mL) or lacking exogenously added RSPO-1 (e.g. MammoCult™ Mouse Organoid Growth Medium, […] Technologies) (FIG. 2).\nOrganoid media were formulated to lack either exogenously added RSPO-1 or RSPO-3, and they were tested on single cell suspensions of bulk mammary epithelial cells, obtained in accordance with Example 1 and seeded and cultured as described in Example 2. […] Flow cytometry analysis of the cellular composition of organoids formed in either RSPO-comprising media or media lacking RSPO confirmed a reduction in the number of basal cells among organoids formed in the absence of WNT agonism (FIG. 3B).\nIn a follow-up experiment, organoids were formed from single cell suspensions obtained in accordance with Example 1, and seeded and cultured as described in Example 2. […] At the end of the second passage the formed organoids were processed and stained for K8, K14, and DAPI, as described in Example 3.\nThe foregoing experiments were performed in a medium that included an inhibitor of BMP signaling, thus the effect of BMP signaling inhibition on the formation of mouse mammary organoids was explored."}},
  "data": [
    {"molecule": "amphiregulin (protein, UniProt P15514 101-187, looked up, ligand of ERBB1) Amphiregulin: SVRVEQVVKPPQNKTESENTSDKPKRKKKGGKNGKNRRNRKKKNPCNAEFQNFCIHGECKYIEHLEAVTCKCQQEYFGERCGEKSMK", "values": [
      {"measurement": "cell lineage balance, ERBB receptor family ligands", "setting": "[1]; just prior to first passage, ~10-50 ng/mL AREG, ~10-50 ng/mL EGF, ~50-100 ng/mL NRG1", "value": "a minor or no effect on cell lineage balance"},
      {"measurement": "cell lineage balance across multiple experiments, ERBB ligands", "setting": "[1]; normalized to control lacking ERBB modulators, mean of 2 experiments", "value": "minimal impact on luminal cell percentages but profound impact on increasing basal cell percentages"},
      {"measurement": "total cell count among formed organoids, ERBB modulators", "setting": "[2]; vs control with no modulation of ERBB signaling", "value": "highest mitogenic activity"}
    ]},
    {"molecule": "NOGGIN: protein inhibitor of BMP signaling (protein, UniProt Q13253 28-232, looked up) Noggin: QHYLHIRPAPSDNLPLVDLIEHPDPIFDPKEKDLNETLLRSLLGGHYDPGFMATSPPEDRPGGGGGAAGGAEDLAELDQLLRQRPSGAMPSEIKGLEFSEGLAQGKKQRLSKKLRRKLQMWLWSQTFCPVLYAWNDLGSRFWPRYVKVGSCFSKRSCSVPEGMVCKPSKSVHLTVLRWRCQRRGGQRCGWIPIQYPIISECKCSC", "values": [
      {"measurement": "lineage balance in medium free of NOGGIN and RSPO-1 vs medium comprising both", "setting": "[3]", "value": "a significant reduction of basal cells with a concomitant increase in luminal cells"},
      {"measurement": "formation of luminal organoids, single vs dual BMP signaling inhibitor", "setting": "[4]; media comprising NOGGIN or LDN193189 alone vs both, successive passages", "value": "appeared sufficient to bias formation of luminal organoids"},
      {"measurement": "cell lineage balance, BMP signaling modulators", "setting": "[1]; just prior to first passage", "value": "decreased the number of basal cells while increasing the number of luminal cells"}
    ]},
    {"molecule": "TGFβ3: ligand of a TGFβ receptor (protein, UniProt P10600 301-412, looked up) Transforming growth factor …: ALDTNYCFRNLEENCCVRPLYIDFRQDLGWKWVHEPKGYYANFCSGPCPYLRSADTTHSTVLGLYNTLNPEASASPCCVPQDLEPLTILYYVGRTPKVEQLSNMVVKSCKCS", "values": [
      {"measurement": "cell lineage balance, TGFβ receptor ligands", "setting": "[1]; ~50 ng/mL, just prior to first passage", "value": "results consistent with TGF β1"}
    ]},
    {"molecule": "RSPO-3: WNT agonist, an R-spondin (protein, UniProt Q9BXY4 22-272, looked up) R-spondin-3: QNASRGRRQRRMHPNVSQGCQGGCATCSDYNGCLSCKPRLFFALERIGMKQIGVCLSSCPSGYYGTRYPDINKCTKCKADCDTCFNKNFCTKCKSGFYLHLGKCLDNCPEGLEANNHTMECVSIVHCEVSEWNPWSPCTKKGKTCGFKRGTETRVREIIQHPSAKGNLCPPTNETRKCTVQRKKCQKGERGKKGRERKRKKPNKGESKEAIPDSKSLESSKEIPEQRENKQQQKKRKVQDKQKSVSVSTVH", "values": [
      {"measurement": "type of organoids formed from bulk (non-sorted) mammary epithelial cells", "setting": "[5]; non-sorted mouse cells", "value": "yielded a significant number of mixed organoids"}
    ]},
    {"molecule": "RSPO-1: WNT signaling agonist, an R-spondin (protein, UniProt Q2MKA7 21-263, looked up) R-spondin-1: SRGIKGKRQRRISAEGSQACAKGCELCSEVNGCLKCSPKLFILLERNDIRQVGVCLPSCPPGYFDARNPDMNKCIKCKIEHCEACFSHNFCTKCKEGLYLHKGRCYPACPEGSSAANGTMECSSPAQCEMSEWSPWGPCSKKQQLCGFRRGSEERTRRVLHAPVGDHAACSDTKETRRCTVRRVPCPEGQKRRKGGQGRRENANRNLARKESKEAGAGSRRRKGQQQQQQQGTVGPLTSAGPA", "values": [
      {"measurement": "lineage balance in medium free of NOGGIN and RSPO-1 vs medium comprising both", "setting": "[3]", "value": "a significant reduction of basal cells with a concomitant increase in luminal cells"},
      {"measurement": "organization of organoids formed in the absence of RSPO-1 over three successive passages", "setting": "[5]; non-sorted mouse cells, P0-P2, absence vs presence of RSPO-1, medium included BMP signaling inhibitor", "value": "cystic organization devoid of branching"},
      {"measurement": "type of organoids formed from bulk (non-sorted) mammary epithelial cells", "setting": "[5]; non-sorted mouse cells", "value": "yielded a significant number of mixed organoids"},
      {"measurement": "organoid formation from sorted ER+ lineage cells", "setting": "[5]; sorted mouse ER+ luminal cells, medium with ~100 ng/mL RSPO-1 vs lacking RSPO-1, no BMP signaling inhibitor", "value": "generally the same efficiency in either of the tested medium formulations"},
      {"measurement": "organoid organization from sorted basal lineage cells", "setting": "[5]; sorted mouse basal lineage cells, RSPO-1 (~100 ng/mL) containing medium vs RSPO-1 deficient", "value": "a predominately mixed organization"},
      {"measurement": "organoid organization from sorted milk lineage cells", "setting": "[5]; sorted mouse milk lineage cells, RSPO-1 (~100 ng/mL) containing medium vs RSPO-1 deficient (cystic)", "value": "a more mixed organization of basal, luminal and other cells"},
      {"measurement": "luminal-biased organoids with vs without exogenously-added RSPO-1", "setting": "[4]; luminal-promoting organoid medium, ~20-200 ng/mL RSPO-1", "value": "did not reveal a significant increase or reduction of luminal-biased organoids"}
    ]},
    {"molecule": "BMP4: BMP signaling activator (protein, UniProt P12644 293-408, looked up) Bone morphogenetic protein 4: SPKHHSQRARKKNKNCRRHSLYVDFSDVGWNDWIVAPPGYQAFYCHGDCPFPLADHLNSTNHAIVQTLVNSVNSSIPKACCVPTELSAISMLYLDEYDKVVLKNYQEMVVEGCGCR", "values": [
      {"measurement": "cell lineage balance, BMP signaling modulators", "setting": "[1]; just prior to first passage", "value": "significant increase in basal cells and reduction in luminal cells"},
      {"measurement": "total cell count among formed organoids, BMP signaling modulators", "setting": "[2]; vs condition where BMP signaling not modulated or inhibited", "value": "a marked net loss of total cells"}
    ]}
  ]
}
